From US20230391832A1 (ISOLERE BIO, published 2023)

B1: SEQ ID NO 44 (designed binder)
chain: MATGVRAVPGNENSLEIEELARFAVDEHNKKENALLEFVRMVKAKEQYISVDKWVATMYYLTLEAKDGGKKKLYEAKVWVKYGGSCWRGGNFKELQEFKPVGDA
notes: N-terminal Met printed as (M)
B2: SEQ ID NO 53 (designed binder)
chain: MATGVRAVPGNENSLEIEELARFAVDEHNKKENALLEFVRVVKAKEQRARYYYVNRTMYYLTLEAKDGGKKKLYEAKVWVKWVIRGDSPANFKELQEFKLVGDA
notes: N-terminal Met printed as (M)
B3: SEQ ID NO 26 (designed binder)
chain: MATGVRAVPGNENSLEIEELARFAVDEHNKKENALLEFVRVVKAKEQVVAGTMYYLTLEAKDGGKKKLYEAKVWVKIRAIVYWSGNFKELQEFKPVGDA
notes: N-terminal Met printed as (M)
B4: SEQ ID NO 43 (designed binder)
chain: MATGVRAVPGNENSLEIEELARFAVDEHNKKENALLEFVRVVKAKEQVVAGTMYYLTLEAKDGGKKKLYEAKVWVKVRYPPNIWKNFKELQEFKPVGDA
notes: N-terminal Met printed as (M)
B5: SEQ ID NO 27 (designed binder)
chain: MATGVRAVPGNENSLEIEELARFAVDEHNKKENALLEFVRVMKAKEQVVAGTMYYLTLEAKDGGKKKLYEAKVWVKGVIYAYSYSNFKELQEFKPVGDA
notes: N-terminal Met printed as (M)
B6: SEQ ID NO 35 (designed binder)
chain: MATGVRAVPGNENSLEIEELARFAVDEHNKKENALLEFVRVVKAKEQVVAGTMYYLTLEAKDGGKKKLYEAKVWVKVRDIVSIRGNFKELQEFKPVGDA
notes: N-terminal Met printed as (M)
B7: SEQ ID NO 45 (designed binder)
chain: MATGVRAVPGNENSLEIEELARFAVDEHNKKENALLEFVRVVKAKEQVVAGTMYYLTLEAKDGGKKKLYEAKVWVKVAAYPRASINFKELQEFKPVGDA
notes: N-terminal Met printed as (M)
B8: SEQ ID NO 41 (designed binder)
chain: MATGVRAVPGNENSLEIEELARFAVDEHNKKENALLEFVRVVKAKEQVVAGTMYYLTLEAKDGGKKKLYEAKVWVKARYVVYYRWNFKELQEFKPVGDA
notes: N-terminal Met printed as (M)
B9: SEQ ID NO 51 (designed binder)
chain: MATGVRAVPGNENSLEIEELARFAVDEHNKKENALLEFVRVVKAKEQVVAGTMYYLTLEAKDGGKKKLYEAKVWVKVRYWVDRRKNFKELQEFKPVGDA
notes: N-terminal Met printed as (M)
B10: SEQ ID NO 37 (designed binder)
chain: MATGVRAVSGNENSLEIEELARFAVDEHNKKENALLEFVRVVKAKEQVVAGTMYYLTLEAKDGGKKKLYEAKVWVKSPVYWPKGGNFKELQEFKPVGDA
notes: N-terminal Met printed as (M)
B11: SEQ ID NO 39 (designed binder)
chain: MATGVRAVPGNENSLEIEELARFAVDEHNKKENALLEFVRVVKAKEQVVAGTMYYLTLEAKDGGKKKLYEAKVWVKWRAVRWWWGNFKELQEFKPVGDA
notes: N-terminal Met printed as (M)
B12: SEQ ID NO 36 (designed binder)
chain: MATGVRAVPSNENSLEIEELARFAVDEHNKKENALLEFVRVVKAKEQVVAGTMYYLTLEAKDGGKKKLYEAKVWVKAIKYVRYKANFKELQEFKPVGDA
notes: N-terminal Met printed as (M)
B13: SEQ ID NO 42 (designed binder)
chain: MATGVRAVPGNENSLEIEELARFAVDEHNKKENALLEFVRVVKAKEQVVAGTMYYLTLEAKDGGKKKLYEAKVWVKGRYSVYWYVNFKELQEFKPVGDA
notes: N-terminal Met printed as (M)
B14: SEQ ID NO 47 (designed binder)
chain: MATGVRAVPGNENSLEIEELARFAVDEHNKKENALLEFVRVVKAKEQVVAGTMYYLTLEAKDGGKKKLYEAKVWVKVNIYVISPRNFKELQEFKPVGDA
notes: N-terminal Met printed as (M)
B15: SEQ ID NO 40 (designed binder)
chain: MATGVRAVPGNENSLEIEELARFAVDEHNKKENALLEFVRVVKAKEQVVAGTMYYLTLEAKDGGKKKLYEAKVWVKVVGKWWVNINFKELQEFKPVGDA
notes: N-terminal Met printed as (M)
B16: SEQ ID NO 52 (designed binder)
chain: MATGVRAMPGNENSLEIEELARFAVDEHNKKENALLEFVRVVKAKEQVVAGTMYYLTLEAKDGGKKKLYEAKVWVKVWWVVSDPANFKELQEFKPVGDA
notes: N-terminal Met printed as (M)
B17: SEQ ID NO 46 (designed binder)
chain: MATGVRAVPGNENSLEIEELARFAVDEHNKKENALLEFVRVVKAKEQVVAGTMYYLTLEAKDGGKKKLYEAKVWVKIGIPIRIWSNFKELQEFKPVGDA
notes: N-terminal Met printed as (M)
B18: SEQ ID NO 29 (designed binder)
chain: MATGVRAVPGNENSLEIEELARFAVDEHNKKENALLEFVRVVKAKEQVVAGTMYYLTLEAKDGGKKKLYEAKVWVKAAGYYVYAPNFKELQEFKPVGDA
notes: N-terminal Met printed as (M)
B19: SEQ ID NO 38 (designed binder)
chain: MATGVRAVPGNENSLEIEELARFAVDEHNKKENALLEFVRVVKAKEQVVAGTMYYLTLEAKDGGKKKLYEAKVWVKSASYYVYSYNFKELQEFKPVGDA
notes: N-terminal Met printed as (M)
B20: SEQ ID NO 34 (designed binder)
chain: MATGVRAVPGNENSLEIEELARFAVDEHNKKENALLEFVRVVKAKEQVVACTMYYLTLEAKDDGKKKLYEAKVWVKSRVRVIRWGNFKELQEFKPVGDA
notes: N-terminal Met printed as (M)
B21: SEQ ID NO 48 (designed binder)
chain: MATGVRAVPGNENSLEIEELARFAVDEHNKKENALLEFVCVVKAKEQVVAGTMYYLTLEAKDGGKKKLYEAKVWVKVAPIYSVDSNFKELQEFKPVGDA
notes: N-terminal Met printed as (M)
B22: SEQ ID NO 33 (designed binder)
chain: MATGVRAVPGNENSLEIEELARFAVDEHNKKENALLEFVRVVKAKEQVVAGTMYYLTLEAKDGGKKKLYEAKVWVKVRRDIVVPRNFKELQEFKPVGDA
notes: N-terminal Met printed as (M)
B23: SEQ ID NO 31 (designed binder)
chain: MATGVRAVPGNENSLEIEELARFAVDEHNKKENALLEFVRVVKAKEQVVAGTMYYLTLEAKDGGKKKLYEAKVWVKISRPGWWPWNFKELQEFKPVGDA
notes: N-terminal Met printed as (M)
B24: SEQ ID NO 50 (designed binder)
chain: MATGVRAVPGNENSLEIEELARFAVDEHNKKENALLEFVRVVKAKEQVVAGTMYYLTLEAKDGGKKKLYEAKVWVKVRRYSPPNRNFKELQEFKPVGDA
notes: N-terminal Met printed as (M)
B25: SEQ ID NO 49 (designed binder)
chain: MATGVRAVPGNENSLEIEELARFAVDEHNKKENALLEFVRVVKAKEQVVAGTMYYLTLEAKDGGKKKLYEAKVWVKSVAIRNWYWNFKELQEFKPVGDA
notes: N-terminal Met printed as (M)
B26: SEQ ID NO 28 (designed binder)
chain: MATGVRAVPGNENSLEIEELARFAVDEHNKKENALLEFVRVVKAKEQVVAGTMYYLTLEAKDGGKKKLYEAKVWVKAGYIGRSKANFKELQEFKPVGDA
notes: N-terminal Met printed as (M)
B27: SEQ ID NO 32 (designed binder)
chain: MATGVRAVPGNENSLEIEELARFAVDEHNKKENALLEFVRVVKAKEQVVAGTMYYLTLEAKDGGKKKLYEAKVWVKSRSVRIWYSNFKELQEFKPVGDA
notes: N-terminal Met printed as (M)
B28: SEQ ID NO 30 (designed binder)
chain: MATGVRAVSGNENGLEIEELARFAVDEHNKKENALLEFVRVVKAKEQVVAGTMYYLTLEAKDGGKKKLYEAKVWVKRIVRVAVWVNFRELQEFKPVGDA
notes: N-terminal Met printed as (M)

Biological target: T1, AAV9 capsids (adeno-associated virus serotype 9, Assembled icosahedral capsid of about 60 subunits (VP1, VP2, VP3 from one gene). One VP1 chain is given. Example 1's screen does not say whether the capsids were full or empty.)
T1 construct: Assembled virus capsid
Experiment: ELISA, AAV9 capsids coated on plate, His-tagged variant in E. coli lysate, anti-His-HRP luminescence; signal relative to HSA (A) or to PKD2 control (B)

Binder	fold specificity for AAV9 capsids [fold]
B1	> 3
B2	> 3
MCDIPPFVCWWPSWCVWATWVCDGAPDCIDNYDEWICTPTP (designed binder, N-terminal Met printed as (M)) [SEQ ID NO 10]	> 3
B3	> 3
B4	> 3
B5	> 3
B6	> 3
B7	> 3
B8	> 3
B9	> 3
B10	> 3
B11	> 3
B12	> 3
B13	> 3
B14	> 3
B15	> 3

Binder	fold specificity for AAV9 capsids [fold]
B16	> 3
B17	> 3
B18	> 3
B19	> 3
B20	> 3
B21	> 3
B22	> 3
B23	> 3
B24	> 3
B25	> 3
B26	> 3
B27	> 3
B28	> 3
MCWVKIFRCNIVGVCIVNTWVCDGRVDCSDPPDEGWCTPTP (designed binder, N-terminal Met printed as (M)) [SEQ ID NO 11]	> 3
MCAIDNFPCNWYIDCIGATWVCDGIIDCIDIADEYDCTPTP (designed binder, N-terminal Met printed as (M)) [SEQ ID NO 12]	> 3
